Measured values reported in patent US20220041711A1 (NGM BIOPHARMACEUTICALS, published 2022).
Like-named read-outs stand apart in the source and are kept apart here.

Key:
[1] = molecular target: T1, human LAIR-1-ECD (human, UniProt Q6GTX8 22-165); test: SPR (Biacore); antibody captured by anti-Fc; LAIR-1-ECD injected;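 also: Anti-Fc immobilized on a CM5 chip, LAIR-1-ECD (human or cynomolgus) injected at 3.3-10 nM and 25 °C, kinetics fitted by simultaneous global fit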
T1 construct: Recombinant, expressed in mammalian cells; also called extracellular region of human LAIR-1
T1 chain: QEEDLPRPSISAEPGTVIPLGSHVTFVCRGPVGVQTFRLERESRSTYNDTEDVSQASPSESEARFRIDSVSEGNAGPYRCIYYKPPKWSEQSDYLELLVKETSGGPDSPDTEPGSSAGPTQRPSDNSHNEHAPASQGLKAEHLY

[2] = molecular target: T2, cyno LAIR-1-ECD (cynomolgus monkey); test: as above
T2 construct: Recombinant, expressed in mammalian cells; also called extracellular region of cyno LAIR-1
T2 chain: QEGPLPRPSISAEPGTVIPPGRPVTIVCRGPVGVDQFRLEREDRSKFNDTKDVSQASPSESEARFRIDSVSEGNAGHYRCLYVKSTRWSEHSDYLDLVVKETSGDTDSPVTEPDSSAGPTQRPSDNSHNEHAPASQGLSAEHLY

[3] = molecular target: T3, human LAIR-2 (form in the assay not stated) (human, UniProt Q6ISS4 22-152); test: ELISA and FACS screening
T3 sequence: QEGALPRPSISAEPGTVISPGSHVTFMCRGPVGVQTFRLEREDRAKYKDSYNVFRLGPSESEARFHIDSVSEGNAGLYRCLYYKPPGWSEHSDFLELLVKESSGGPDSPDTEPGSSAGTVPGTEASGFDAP

[4] = molecular target: T4, mouse LAIR-1 (form in the assay not stated) (mouse, UniProt Q8BG84 22-144, limits assumed); test: not described
T4 sequence: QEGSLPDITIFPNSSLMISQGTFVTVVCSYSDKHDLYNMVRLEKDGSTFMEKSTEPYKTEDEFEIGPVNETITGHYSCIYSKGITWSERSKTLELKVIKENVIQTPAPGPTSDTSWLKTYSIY

[5] = molecular target: T5, human LAIR-1-CD3ζ chimeric receptor on NFAT-GFP reporter cells (human, UniProt P20963 31-164, limits assumed); test: cell-based or functional assay
[6] = molecular target: T5, human LAIR-1-CD3ζ chimeric receptor on …; test: cell-based or functional assay; remark: listed apart in the source

Binder | Kd [1] [nM] | koff [1] [s⁻¹] | kon [1] [M⁻¹ s⁻¹] | Kd [2] [nM] | koff [2] [s⁻¹] | kon [2] [M⁻¹ s⁻¹] | binding result [3] | binding result [4] | IC50 (read off the curve): % GFP+ human LAIR-1 reporter cells on coated C1 complex [5] [nM] | IC50 (read off the curve): % GFP+ human LAIR-1 reporter cells on coated COLEC12 [5] [nM] | IC50 (read off the curve): % GFP+ human LAIR-1 reporter cells on coated MARCO-his [5] [nM] | IC50 (read off the curve): % GFP+ human LAIR-1 reporter cells on coated MBL [5] [nM] | IC50 (read off the curve): % GFP+ human LAIR-1 reporter cells on coated SP-D [5] [nM] | IC50 (read off the curve): % GFP+ human LAIR-1 reporter cells on coated collagen 1 [5] [nM] | IC50 (read off the curve): % GFP+ human LAIR-1 reporter cells on coated collagen 4 [5] [nM] | IC50 (read off the curve): % GFP+ human LAIR-1 reporter cells on coated MARCO-his [6] [nM] | IC50 (read off the curve): % GFP+ human LAIR-1 reporter cells on coated collagen 1 [6] [nM] | IC50 (read off the curve): % GFP+ human LAIR-1 reporter cells on coated collagen 4 [6] [nM]
anti-LAIR-1 antibody 57D12 (antibody, V domains shown, Monoclonal antibody from immunized mice (hybridoma)) VH: QVQLQQSGAELARPGASVNLSCRASGYSFTSFGISWVKQRTGQGLEWIGEIYPRSDNTFYNEKFKGKATLTADKSSSTAYMELRSLTSEDSAVYFCARHFGSSSFDYWGQGTTLTVSS VL: ENVLTQSPPIMAASLGQKVTMTCSASSSVSSIYFHWYQQKSGTSPKPLIHRASNLASGVPARFSGSGSGTSYSLTISSVEAEDDATYYCQQWSGYPLTFGGGTKLEIK | 0.27 | 4.5e-05 | 170000 | 7.3 | 0.00078 | 110000 | no binding | no binding | – | – | – | – | – | – | – | – | – | –
anti-LAIR-1 antibody ch47A1 (antibody, V domains shown) VH: EVQLVESGGGLVQPKGSLKLSCAASGFTFNTYAIHWVRQAPGKGLEWVARIRSKSTNYATYYADSVKDRFTISRDDSQSMVFLQMNNLKTEDTAMYYCVRENWYYYALDYWGQGTSVTVSS VL: DIQMTQSPASLSASVGETVTITCRASGNIHNYLTWYQQKQGKSPQVLVYNAKTLEDGVPSRFSGSESGTQYSLKINSLQPEDFGSYYCQHFWSTPFTFGSGTKLEIK | – | – | – | – | – | – | – | – | ~0.02 | ~0.1 | ~0.06 | ~0.2 | ~0.05 | ~0.05 | ~0.04 | ~0.04 | ~0.1 | ~0.08
anti-LAIR-1 antibody 47A1 (antibody, V domains shown, Monoclonal antibody from immunized mice (hybridoma)) VH: EVQLVESGGGLVQPKGSLKLSCAASGFTFNTYAIHWVRQAPGKGLEWVARIRSKSTNYATYYADSVKDRFTISRDDSQSMVFLQMNNLKTEDTAMYYCVRENWYYYALDYWGQGTSVTVSS VL: DIQMTQSPASLSASVGETVTITCRASGNIHNYLTWYQQKQGKSPQVLVYNAKTLEDGVPSRFSGSESGTQYSLKINSLQPEDFGSYYCQHFWSTPFTFGSGTKLEIK | 0.92 | 0.00055 | 590000 | 18 | 0.0057 | 320000 | no binding | no binding | – | – | – | – | – | – | – | – | – | –
anti-LAIR-1 antibody 62G10 (antibody, V domains shown, Monoclonal antibody from immunized mice (hybridoma)) VH: EVQLVETGGGLVQPKGSLKLSCATSGFTFNINAMNWVRQAPGKGLEWVARIRTKNNNFATYYADSVKDRFTISRDDSQSMLYLQMNNLKTEDTAMYYCVRGPYFDYWGQGTTLTVSS VL: DIQMTQSPASQSASLGESVTITCLASQTIGTWLAWYQQKPGKSPQLLIYAATSLADGVPSRFSGSGSGTKFSFKISNLQAEDFVTYYCQQLYSTPYTFGGGTKLEIK | 0.32 | 0.00018 | 550000 | 5.1 | 0.001 | 200000 | no binding | no binding | – | – | – | – | – | – | – | – | – | –
anti-LAIR-1 antibody 47H1 (antibody, V domains shown, Monoclonal antibody from immunized mice (hybridoma)) VH: EVQLVETGGGLVQPKGSLKLSCAASGFTFNINAMNWVRQAPGKGLEWVARIRTKNNNYATFYADSVKDRFTISRDDSQSMLYLQMNNLKTDDTAMYYCVRDRAGFFAYWGQGTPVTVSA VL: DIQMTQSPASQSASLGESVTITCLASQTIGTWLGWYRQKPGKSPQLLIYAATSLADGVPSRFSGSGSGTKFSFKISSLQAEDFVIYYCQQLYSTPLTFGSGTKLEIK | 0.087 | 0.0001 | 1.2e+06 | 2.5 | 0.00044 | 180000 | no binding | no binding | – | – | – | – | – | – | – | – | – | –
anti-LAIR-1 antibody ch61H4 (antibody, V domains shown) VH: EVQLQQSGPEVLKPGASVKISCKASGYTFTDYYYMNWVKQSHGKSLEWIGYIYPNNGATSYNQKFKGKATLTVDKSSSTAYMELRSLTSEDSAVYYCARDGYSSNYYTMDYWGQGTSVTVSS VL: DVQMIQSPSSLSASLGDIVTMTCQASQGTSINLNWFQQKPGKAPKLLIYGASNLEDGVPSRFSGSRYGTDFTLTISSLEDEDMATYFCLQHTYLPYTFGGGTKLEIK | – | – | – | – | – | – | – | – | – | – | – | – | – | – | – | ~0.8 | ~2 | ~1
anti-LAIR-1 antibody 61H4 (antibody, V domains shown, Monoclonal antibody from immunized mice (hybridoma)) VH: EVQLQQSGPEVLKPGASVKISCKASGYTFTDYYYMNWVKQSHGKSLEWIGYIYPNNGATSYNQKFKGKATLTVDKSSSTAYMELRSLTSEDSAVYYCARDGYSSNYYTMDYWGQGTSVTVSS VL: DVQMIQSPSSLSASLGDIVTMTCQASQGTSINLNWFQQKPGKAPKLLIYGASNLEDGVPSRFSGSRYGTDFTLTISSLEDEDMATYFCLQHTYLPYTFGGGTKLEIK | 0.46 | 4.9e-05 | 110000 | 9.6 | 0.00077 | 80000 | no binding | no binding | – | – | – | – | – | – | – | – | – | –
anti-LAIR-1 antibody ch108D10 (antibody, V domains shown) VH: EVQLVETGGGLVQPKGSLKLSCAASGFTFNINAMNWVRQAPGKGLEWVARIRTKNNNYATYYADSVKDRFTISRDDSESMLYLQMNNLKTEDTAMYYCVRDRYGGAMAYWGQGTSVTVSS VL: DIQMTQSSSSFSVSLGDRVTITCKASEDIYNRLAWYQQKPGNVPRLLISSATSLETGVPSRFSGSGSGKDYTLSLTSLQSEDVATYYCQQYWTIPYTFGGGTKLEIK | – | – | – | – | – | – | – | – | ~0.01 | ~0.03 | ~0.03 | ~0.04 | ~0.02 | ~0.03 | ~0.02 | ~0.01 | ~0.05 | ~0.04
anti-LAIR-1 antibody 108D10 (antibody, V domains shown, Monoclonal antibody from immunized mice (hybridoma)) VH: EVQLVETGGGLVQPKGSLKLSCAASGFTFNINAMNWVRQAPGKGLEWVARIRTKNNNYATYYADSVKDRFTISRDDSESMLYLQMNNLKTEDTAMYYCVRDRYGGAMAYWGQGTSVTVSS VL: DIQMTQSSSSFSVSLGDRVTITCKASEDIYNRLAWYQQKPGNVPRLLISSATSLETGVPSRFSGSGSGKDYTLSLTSLQSEDVATYYCQQYWTIPYTFGGGTKLEIK | 0.4 | 0.00043 | 1.1e+06 | 21 | 0.0039 | 190000 | no binding | no binding | – | – | – | – | – | – | – | – | – | –
